Assay results taken from PMC6700365, “Expression and Characterization of Carotenoid Cleavage Oxygenases From Herbaspirillum seropedicae and Rhodobacteraceae bacterium Capable of Biotransforming Isoeugenol and 4-Vinylguaiacol to Vanillin” (Frontiers in Microbiology, 2019).

Experiments:
Assay in all cases: HPLC of vanillin formed
[1] = substrate: C=Cc1ccc(O)c(OC)c1; assay type: biochemical, Herbaspirillum seropedicae; conditions: measured under optimal conditions (pH 7.0, 40 °C), 10% glycerol
Description: (§1) HPLC of vanillin formed on HsCCO

[2] = substrate: CC=Cc1ccc(O)c(OC)c1; assay type: biochemical, Herbaspirillum seropedicae; conditions: measured under optimal conditions (pH 7.0, 40 °C), 10% glycerol
Description: as §1

[3] = substrate: C=Cc1ccc(O)c(OC)c1; assay type: biochemical, Paracoccaceae bacterium; conditions: measured under optimal conditions (pH 9.0, 35 °C), 10% glycerol
Description: (§2) HPLC of vanillin formed on RbCCO

[4] = substrate: CC=Cc1ccc(O)c(OC)c1; assay type: biochemical, Paracoccaceae bacterium; conditions: measured under optimal conditions (pH 9.0, 35 °C), 10% glycerol
Description: as §2

Protein	Km [1] [µM]	Vmax [1] [µmol/min/mg]	Km [2] [µM]	Vmax [2] [µmol/min/mg]	Km [3] [µM]	Vmax [3] [µmol/min/mg]	Km [4] [µM]	Vmax [4] [µmol/min/mg]
HsCCO (Herbaspirillum seropedicae) (protein, codon-optimized gene, NdeI/XhoI in pET-29a(+), His-tagged, E. coli BL21(DE3), Ni-NTA, about 55 kDa on SDS-PAGE) MSMQYPATPEFQGMYRPSRVEASVQALEVVGQLPAQLQGCFYQVAPDPAYPPMLGQDIFFNGDGMVSAFRFGQGQVSLTRRYVQTERLKAQRQAGRSLNGIYRNIYTNAPEAASDNTTANTTVIKHAGVLLALKEDSLPYAMDPVTLETRGLWDFHGQVKSATFTAHPKICPQSGSMLCFAYEAKGDGTPDIAYYEIDAAGKLIRETWFQAPYAAMIHDFAVTENYVIFPIIPLTVDVERMKRGGQHFQWQPDLPQLFGILPRAGDAADVRWFYGPADGFQGHTLNAYELGRKLILDMPVTSGNVFYFFPQADGFVPSPETLKSGLARWTFDLDADNDQVMPEPLTQFPCEFPRCDERYSGRPYQHGFMLAFDPTLPFDAAALGAPPFQFFNQLAHVNVRTGETRTWYAGDAHCFQEPVFVPRSADAPEGDGFLLSLLNDLRSGATELVILDTHDLSAGPVARVQIPLRMRMSLHGNWSSD	1650	0.0279	1550	0.0741	–	–	–	–
RbCCO (Paracoccaceae bacterium) (protein, codon-optimized gene, BamHI/XhoI in pET-29a(+), His-tagged, co-expressed with GroEL/GroES (pGro7) in E. coli BL21(DE3), Ni-NTA, about 55 kDa on SDS-PAGE) MTRPFPKTPEFSGSLYRPARFEGSVFDLEVEGRVPEDIHGTFFQVAPDPQFPPMRGNDIFFNGDGAVHAFRFANGAVDFQRRYVMTDRLKAQRAERESLFGLYRNGYTNDPRADGVHMGTANTNVVQHNGRLLALKEDSPPYALDPVTLETHGLFDFDGQLTSPTFTAHPKFDPETGAMLCFGYEAKGEATPDIVYYEIDSQGRKQREIWLRGPYAAMIHDFAVTRNYIIFPLMPLTPDLDRIRKGGNHFEWQPGLEQVFGVLPRDGDGTDVRWFTAPNGFQGHTLNAFDDGRGRIFVDMPVTDGNIFYFFPQSDGHVPPPETLSSRMMRWTFDMNNPGNALSMAPITDFACEFPKCDPRYSGHEYRHGFVIGMDMTRPFDAERLGAPPFQFFNLLSHVDVATRRVKSWFADAQTCFQEPVFVPRSANAPEGEGWVIALANRLVDQTTDLVILDAQHMDEGPVAVVHLPVRLRMSLHGSWVPAAA	–	–	–	–	850	0.02	2240	0.0765
